The target of assay [1] is T1, GST–Cdc14p (budding yeast, UniProt Q00684 1-551).
T1 sequence: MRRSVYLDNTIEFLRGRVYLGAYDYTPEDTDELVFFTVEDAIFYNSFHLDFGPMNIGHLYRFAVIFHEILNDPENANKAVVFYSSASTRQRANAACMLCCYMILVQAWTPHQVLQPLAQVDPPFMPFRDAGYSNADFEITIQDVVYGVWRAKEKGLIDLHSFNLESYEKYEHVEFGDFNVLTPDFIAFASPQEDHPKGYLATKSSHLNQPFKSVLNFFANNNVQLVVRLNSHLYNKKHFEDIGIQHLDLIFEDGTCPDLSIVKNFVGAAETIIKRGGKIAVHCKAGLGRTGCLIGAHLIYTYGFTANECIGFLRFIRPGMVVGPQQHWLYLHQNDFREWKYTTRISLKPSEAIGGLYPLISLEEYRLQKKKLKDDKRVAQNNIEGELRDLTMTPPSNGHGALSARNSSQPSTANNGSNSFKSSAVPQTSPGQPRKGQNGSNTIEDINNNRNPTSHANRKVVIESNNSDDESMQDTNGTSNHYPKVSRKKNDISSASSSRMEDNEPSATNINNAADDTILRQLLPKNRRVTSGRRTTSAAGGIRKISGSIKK
Description: pull-down.

Assay [2] addresses T2, 6His–Cdc14p (budding yeast, UniProt Q00684 1-551).
T2 sequence: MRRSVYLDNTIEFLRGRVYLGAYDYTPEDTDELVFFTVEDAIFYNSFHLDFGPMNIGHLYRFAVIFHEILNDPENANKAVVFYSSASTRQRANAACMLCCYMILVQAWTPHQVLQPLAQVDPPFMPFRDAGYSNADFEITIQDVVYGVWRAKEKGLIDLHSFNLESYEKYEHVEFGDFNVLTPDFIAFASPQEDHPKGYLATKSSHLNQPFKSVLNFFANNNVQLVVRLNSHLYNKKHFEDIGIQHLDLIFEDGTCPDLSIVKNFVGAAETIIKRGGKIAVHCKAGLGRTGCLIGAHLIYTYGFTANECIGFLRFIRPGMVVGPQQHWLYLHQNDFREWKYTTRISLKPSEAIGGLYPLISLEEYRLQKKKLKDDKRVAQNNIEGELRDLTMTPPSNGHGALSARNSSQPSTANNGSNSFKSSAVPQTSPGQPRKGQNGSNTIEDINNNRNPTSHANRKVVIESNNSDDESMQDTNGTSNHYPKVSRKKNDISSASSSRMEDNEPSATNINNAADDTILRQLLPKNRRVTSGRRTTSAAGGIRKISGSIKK
Description: pull-down.

B1: 6His–Tem1p (natural protein)
chain: MATPSTGANNSIPAVRNQVEVQVGLVGDAQVGKTSLMVKYVQNIYDKEYTQTLGVNFLKRKVSIRSTDIIFSIMDLGGQREFINMLPIATVGSSVIIFLFDLTRPETLSSIKEWYRQAYGLNDSAIPILVGTKYDLLIDLDPEYQEQISRTSMKYAQVMNAPLIFCSTAKSINIQKIFKIALAKIFNLTLTIPEINEIGDPLLIYKHLGGQQHRHHNKSQDRKSHNIRKPSSSPSSKAPSPGVNT
For B1, in assay [1], the binding result is “binds”.

B2: GST–Bfa1p^1–394 (domain or fragment)
chain: MSIRPLTLNGLDEPETSFEELNTTLPRFQSHETLTLEENVPPLSTSTYIPPPSSVGTSDTGTVFSNSTSAFWSNKQADDDQDMEVDQDDEFLNDFQEFQNKKDDFDDAIKTNFHLRNGCRTGPFKNDIFAEEFDRKLSLEDKPRLKQPRSMMELKPKRKLSNSVTSRNLRSGNSVRFKKSMPNLALVNPAIREEEEDEEREREDQREFNYKIDNDTQDTILAKFSSDDEGDFLTGFEELEGEAIDETISSNDKESADHPRFLKKSSSSLPLKISPAQYDIVKHDELLTPGLHRRQRDWNTQQELDSFKEKRSVRHCSNQNVQLNGPAKIKTIKQQIDHNTPMKKGSMIYNPKTMKWEGNENVLSKFSDVDTANRKALLIKNKLQRDADSKKQKY
Turning to B2, the binding result in assay [2] is given as “binds”.

The values above are taken from article PMC2173300 (The Journal of Cell Biology, 2002).
